B1: TPR t1 (parent)
chain: GACCAAUCUGCCCUCAGAGCUCGAGAACAUCUUCGGAUGCAGAGGAGGCAGGCUUCGGUGGCGCGAUAGCGCCAACGUCCUCAACCUCCAAUGCAUCCCACCACAUGAUGAUGCCUGAAGAGCCUUGGUUUUUUG

Variants of: B1
Test: polymerase ribozyme fitness, log enrichment relative to wild type (log ratio); higher = more active; in vitro selection for triplet polymerase activity
Summary of the method: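 Only genotypes with ≥10 input reads and ≥1 read per output were kept after Illumina sequencing of input and output libraries. These libraries were PCR-built, transcribed mutants of each subunit of a heterodimeric triplet polymerase ribozyme, each put through one triplicate in vitro selection round with frozen incubation at −7 °C, gel excision of extended constructs, streptavidin-bead capture and RT-PCR. Fitness is a logarithmic ratio of genotype enrichment to wild-type enrichment, from inverse-variance-weighted replicate averages, with the logarithm in base 2.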

In order of falling “polymerase ribozyme fitness (log ratio)” value:
1. GGCCAAUCUGCCCUCAGAGCUCGAGAACAUCUUCGGAUGCAGAGGAGGCAGGCUUCGGUGGCGCGAUAGCGCCAACGAUCUCAACCUCCAAUGCAUCCCACCACAUGAUGAUGCCUGAAGAGCCUUGGUUUUUUG  0.0458
2. GUCCAUUCUGCCCUCAGAGCUCGAGAACAUCUUCGGAUGCAGAGGAGGCAGGCUUCGGUGGCGCGAUAGCGCCAACGUCCUCAACCUCCAAUGCAUCCCACCACAUGAUGAUGCCUGAAAAGCCUUGGUUUUUUG  0.00399
3. GGCCAAUCUGCCCUCAGAGCUCGAGAACAUCUUCGGAUGCAGAGGAGGCAGGCUUCGGUGGCGCGAUAGCGCCAACGCCCUCAACCUCCAAUGCAUCCCACCACAUGAUGAUGCCUGAAGAGCCUUGGUUUUUUG  -0.357
4. GGCCAAUCUGCCCUCAGAGCUCGAGAACAUCUUCGGAUGCAGAGGAGGCAGGCUUCGGUGGCGCGAUAGCGCCAACGUCCUCAACCGCCAAUGCUUCCCACCACAUGAUAAUGCCUGAAGAGCCUUGGUUUUUUG  -0.979
5. GGCCAAUCGGCCCUCAGAGCUCGAGAACAUCUUCGGAUGCAGAGGAGGCAGGCUUUGGUGGCGCGAUAGCGCCAACGUCCUCAACCUACAAUGCAUCCCACCACAUGAUGAUGCCUGAAGAGCCUUGGUUUUUUG  -1.54
6. GUCCGAUCGGCCCUCAGAGCUCGAGAACAUCUUCGGAUGCCGAGGAGGCAGGCUUCGGUGGCGCGAUAGCGCCAACGUCCUCAACCUCCAAUGCAUCCCACCACAUGAUGAUGCCUGAAGAGCCUUGGUUUUUUG  -2.01
7. GUCCAAUCUGCCCUCAGAGCUCGAGAACAUCUUCGGAUGCAGAGGAGGCAGGCUUCGGUGGCGCGAUAGCGCCAACGUCCUCAACCUCCAAUGCAUCCCACCACAUGAUGAUGCCUGAAGAGCCUUGGUUUUUUG  -2.07
8. GUCCAAUCUGCCCUCAGUGCUCGAGAACAUCUUCGGAUGCAGAGGAGGCAGGCUUCGGUGGCGCGAUAGCGCCAACGUCCUCAACCUCCAAUGCAUCCCACCACAUGAUGAUGCCUGAAGAGCAUUGGGUUUUUG  -2.31
9. GUCCAAUCUGCCCUCAGAGCUCGAGAACAUCUUCGGAUGCAGAGGAGGCUGGCUUCGGUGGCGCGAUAGCGCCAACGUCCUCAACCUCCAAUGCCUCCCACCACAUGAUGAUGCCUGAAGAGCAAUGGUUUUUUG  -2.49
10. GUCCAAUCUGCCCUCAGAGCUCGAGAACAUCUUCGGAUGCGGAGGAGGCAGGCUACGGUGGCGCGAUAGCGACAACGUCCUCAACCUCCAAUGCAUCCCACCACAUGAUGAUGCCUGAAGAGCCUUGGUUUUUUG  -2.61
11. GGCCAACCCGCCCUCAGAGCUCGAGAACAUCUUCGGAUGCAGAGGAGGCAUGCUUCGGUGGCGCGAUAGCGCCAACGUCCUCAACCUCCAAUGCAUCCCACCACAUGAUGAUGCCUGAAGAGCCUUGGUUUUUUG  -2.87
12. GUCCAAUCUGCCCUCUGAGCUCGAGAACAUCUUCGGAUGCAGAGAAGGCAGGCUUCGGUGGCGCGAUAGCGCCAACGUCCUCAACCCCCAAUGCAUCCCACCACAUGAUGAUGCCUGAAGCGCCUUGGUUUUUUG  -2.88
13. GGCCAAUCUGCCCUCAGAGCUCGAGAACAUCUUCGGAUGCAGAGGAGGCAGGCUUCGGUGGCGCGAUAGCGCCAACGUCCUCAACCUCCAAUGCAUCCCACCACAGGAUGAUGCCUGAAGAGCCGUGGUUUUUUG  -2.92
14. GUCCAAUCUGCCCUCAGAGCUCGAGAGCAUCUUCGGAUGCAGAGGAGGCAGGCUUCGGUGACGCGAUAGCGCCAACGUCCUCAACCUCCAAUGCAUCCCACCAAAUGAUGACGCCUGAAGAUCCUUGGUUUUUUG  -2.93
15. GUCCAAUCUGCCCUCAGAGCUCGAGAUCAUCUUCGGAUGCAGAGGAGGCAGGCUUCGGUGGCGCGAUAGCGCCCACGUCCUCAACCACCAAUGCAUCCCACCACAUGAUGAAGCCUGAAGAGCCUUUGUUUUUUG  -2.94
16. GGCCAAUCUGCCCUCAGAGCUCGAGAACAUCUUCGGAGGCAUAGGAGGCAGGCUUCGGUGGCGCGAUAGCGCCAACGUCCUCAACCUCCAAUGCAUCCCACCACAUGAUGAUGCUUGAAGAGCCUUGGUUUUUUG  -3.06
17. GUCCAAUCUGCCCUCAGAGCUCGAGAACAUCUUCGGAUGCAGAGGAGGCUGGCUUUGGUGGCGCGAUAGCGCCAACGUCCUCAACCUCCAAUGCAUCCCACCACAUGAUGAUGCCUGAAGAGCCUUGGUUUUUUG  -3.13
18. GUCCAAUCUGCCCUCAGAGCUCGAGAACAUCUUCGGAUGCAGAGGAGGCCGGCUUCGGUGGCGCGAUAGUGCCAACGUCCUCAACCUCCAAUGCAUCCCAUCACAUGAUGAUGCCUGAAGAGCCUUGGUUUUUUG  -3.18
19. GUCCAAUCUGCCCUCAGAGCUCGAGAACAUCUUCGGAUGCAGAGGAGGCAGGCUUCGGUGGCGCGAUAGCGCCAACGUCCUCAACCUCCAAUGCAUCCCUCCACAUGAUGAUGCCUGAAGAGCCUUGGUUUUUUG  -3.18
20. GUCCAAUCUGCCCUCAGAGCUCGAGAACAUCUUCGGGUGCAGAGGAGGCAGGCUUCGGUGGCGCGAUAGCGCCAAGGUCCUCAACCUCCAAUGCAUCCCACCACAUGAUGAUGCCUGAAGAGCCUUGGUUUUUUG  -3.35
21. GUCCAAUCUGCCCUCAGAGCUCGAGAACAUCUUCGGAUGCAGAGGAGGCAGGCUUCGGUGGCGCGAUAGCGCCUACGUCCUUAACCUCCAAUGCAUCCCACCACAUGAUGAUGCCUGAAGAGCCUUGGUUUUUUG  -3.62
22. GGCCAAUCUGCCCGCAGAGCUCGAGAACAUCUUCGGAUGCAGAGGAGGCAGGCUUCGGUGGCGCGAUAGAGCCAACGUCCUCAACCUCCAAUGCAUCCCAGCACAUGAUGAUGCCUGAAUAGCCUUCGUUUUUUG  -3.71
23. GUCCAAUCUGCCCUCAGAGCUCGAGAACAUCUUCGGAUGCAGAGGAGGCAGGCUUCGGUGGCGCGAUAGCGCCAACGUCCUCAACCUCCAAUGCAUCCCUCCACAUGAUGAUGCCCGAAGAGCCUUGGUUUUUUG  -3.73
24. GUCCAAUCUGCCCUCAGAGCUCGAGAGCAUCUUCGGAUGCAGAGGAGGCAGGCGUCGGUGGCGCGAUAGCGCCAACGUCCUCAACCUCCAAUGCAUCCCACCACAUGAUGAUGCCUGAAGAGUCUUGGUUUUUUG  -3.79
25. GUCCGAUCUGCCCUCAGUGCUCGAGAACAUCUUCGGAUGCAGCGGAGGCAGGCUUUGGUGGCGCGAUAGCGCCAACGUCCUCAAACUCCAAUGCAUCCCACCACAUGAUGAUGCCUGAAGAGCCUCGGAUUUUUG  -3.94
26. GUCCGAUCUGCCCUCAGAGCUCGAGAACAUCUUCGGAUGCAGAGGAGGCAGGCUUCGGUCGCGCGAUAGCGCCAACGUCCUCAACCUCCAAUGCAUCCCACCACAUGAUGAUGCCUGAAGAGCCUUGGUUUUUUG  -4
27. GUCCAAUCUGCCCUCAGAGCUCGAGAACAUCUUCGGAUGCAGAGGAGGCUGGCUUCGGUGGCGCGAUAGCGGCAACGUCCUCAACCUCCAAUGCAUCCCACCACAUGAUGAUGCCUGAAGAGCCUUGGUUUUUUG  -4.02
28. GUGCAAUCUGCCCUCAGAGCUCGAGAACAUCUUCGGAUGCAGAGGAGGCAGGCUUCGGUGGCGCGAUAGCGCCAACGUACUCAACCUCCAAUGCAUCCCACCACAUGAUGAUACCUGAAGAGCGUUGGUUUUUUG  -4.18
29. GUCCCAUCUGCCUUCAGAGCUCGAGAACAUCUUCGGAUGCAGAGGAGACAGGCUUCGGUGGCGCGAUAGAGCCAACGUCCUCAACCUCCAAUGCAUCCCACCACAUGAUGAUGCCUGAAGAGCCUUGGUUUUUUG  -4.35
30. GUCCAAUCUGCCCUCUGAGCUCGAGAACAUCUUCGGAUGCAGAGGAGGCAGGCUUCGGUGGCGCGAUAGCGGCAACGUCCUCAACUUCCAAUGCAUCCCACCACAUGAUGAUGCCUGAAGAGCCUUGGUUUUUUG  -4.45
31. GUCCAAUCUGCCCUCAGAGCUCGAGAACAUCUUCGGAUGCAGAGGAGGCCGGCUUUUGUGGUGCGAUAGCGCCAACGUCCUCAACCUCCAUUGCAUCCCACCACAUGAUGAUGCCUGAAGAGCGUUCCUUUUUUG  -4.5
32. GUCCAUUCUGCCCUCAGAGCUCGAGAACAUCUUCGGAUGCAGAGGAGGCAGGCUUCUGUGGCGCGAUAGCGCCAACGUCCUCAACCUCCAAUGCAUCCCACCACAUGAUGAUGCCUGAACAGCCUUGGUUUUUUG  -4.53
33. GUCCAAUCUGCCCUCAGAGCUCGAGAACAUCUUCGGAUGCAGAGGAGGCCGGCUUUUGUGGCGCGAUAGCGCCAACGUCCUCAACCUCCAUUGCAUCCCACCACAUGAUGAUGCCUGAAGAGCGUUCCUUUUUUG  -4.54
34. GUCCAUUCUGCCUUCAGAGUUCGAGAACAUCUUCGGAUGCAGAGGAGGCAGGCUUCAGUGGCGCGAUAGCGCCAACGUCCUGAACCUCCAAUGCAUCCCACCACAUGAUGAUGCCUGAAGAGCCUUGGUUUUUUG  -4.79
35. GUCCACUCUGCCCUCAGAGCUCGAGAACAUCUUCGGAUGCAGAGGAGGCAGGCUUCGGUGGCGCGAUAGCGCCAAAGUCCUCAACCUCCAAUGCAUCCCACCACAUGAUGAUGCUUGAAGAGCCUAGGCAUUAUG  -4.89
36. GUCCAAUCUGCCCUCAGUGCUCGAGAACUUCUUCGGAUGCUGAGGAGGCAGGCUUCGGUAGCGCGAUAGCGCCAACGUCCUCAACCUCCAAUGCAUCCCACCACAUGAUGAUGCCUGAAGAGCCUUGGUUUUUUG  -5.23
37. GGCCAAUCUGCCCUCAGAGCUCGAGAACAUCCUCGGAUGGAGAGGAGGAAGGCUUCGGUGGCGCGAUGGCGCUAACGUCCUCAACCUCCAAUGCAUCCCACCACAUGAUGAUGCCUGAAGAGCCUUGGUUUUUUG  -5.24
38. GUCCUAUAUGCCCUCAGAGCUCGAGAACAUCUUCGGAUGCAGAGGAGGCAGGCUUCGGUGGCGCGAUAGCGCCAACGUGCUCAACCUCCAAUGCAUCCCACCACAUGAUGAUGCGUGAAGAGCCUUGGUUUUUUG  -5.43
39. GUCCAAUCUGCCCUCAGAGCUCGAGAACAUCUUCGGAUGCAGCGGAGGCAGGCUUCGGAGGCGCGAUAGCGCCAACGUCCUCAACCUCCAAUGCAUCCCACCACAUGAUGAUGCCUGAAGAGCCUUGGUUUUUUG  -5.8
40. GUCCAAUCUGCCCUCAGAGCUCGAGAACAUCUUCGGUUGCACAGGAGGCAGGCUUCGGUGGCGCGAUAGCGCCAACGUCCUCAACCUCCAAUCCAUCCCACCACAUGAUGAUGCCUGAAAAGGCUUGGUAUUUUG  -6.65
41. GUCCAAUCUGCCCUCAGAGCUCGAGAACAUCUUCGGAUGCAGUGGAGGCAGGGUUCGGUGGCGCGAUAGCGCUAACGUCCUCAACCUCCAAUGCAUCCCACCACAAGAUGAUGCCUGAAGAGCCUUGGUUUUUUG  -7.47
42. GUCCAAUCUGCCCUCAGAGCUCGAGAGCAUCUUCGGAUCCAGAGGAGGCAGGCUUCGGUGCUGCGAUAGCGCCAACGUCCUCAUCCUCCAAUGCAUCCCACCACAUGAUGAUGCCUGAAGAGCCUUGGUUUUUUG  -7.51

Source: the RNAGym collection of RNA variant scans (doi:10.1073/pnas.2313332121)
